Experiments:
TRAPPC11 = target: T1, TRAPPC11 (human, UniProt Q7Z392 1-1133, limits assumed); assay: IP/MS, LZTR1 wild type-FLAG, U87
T1 sequence (looked up): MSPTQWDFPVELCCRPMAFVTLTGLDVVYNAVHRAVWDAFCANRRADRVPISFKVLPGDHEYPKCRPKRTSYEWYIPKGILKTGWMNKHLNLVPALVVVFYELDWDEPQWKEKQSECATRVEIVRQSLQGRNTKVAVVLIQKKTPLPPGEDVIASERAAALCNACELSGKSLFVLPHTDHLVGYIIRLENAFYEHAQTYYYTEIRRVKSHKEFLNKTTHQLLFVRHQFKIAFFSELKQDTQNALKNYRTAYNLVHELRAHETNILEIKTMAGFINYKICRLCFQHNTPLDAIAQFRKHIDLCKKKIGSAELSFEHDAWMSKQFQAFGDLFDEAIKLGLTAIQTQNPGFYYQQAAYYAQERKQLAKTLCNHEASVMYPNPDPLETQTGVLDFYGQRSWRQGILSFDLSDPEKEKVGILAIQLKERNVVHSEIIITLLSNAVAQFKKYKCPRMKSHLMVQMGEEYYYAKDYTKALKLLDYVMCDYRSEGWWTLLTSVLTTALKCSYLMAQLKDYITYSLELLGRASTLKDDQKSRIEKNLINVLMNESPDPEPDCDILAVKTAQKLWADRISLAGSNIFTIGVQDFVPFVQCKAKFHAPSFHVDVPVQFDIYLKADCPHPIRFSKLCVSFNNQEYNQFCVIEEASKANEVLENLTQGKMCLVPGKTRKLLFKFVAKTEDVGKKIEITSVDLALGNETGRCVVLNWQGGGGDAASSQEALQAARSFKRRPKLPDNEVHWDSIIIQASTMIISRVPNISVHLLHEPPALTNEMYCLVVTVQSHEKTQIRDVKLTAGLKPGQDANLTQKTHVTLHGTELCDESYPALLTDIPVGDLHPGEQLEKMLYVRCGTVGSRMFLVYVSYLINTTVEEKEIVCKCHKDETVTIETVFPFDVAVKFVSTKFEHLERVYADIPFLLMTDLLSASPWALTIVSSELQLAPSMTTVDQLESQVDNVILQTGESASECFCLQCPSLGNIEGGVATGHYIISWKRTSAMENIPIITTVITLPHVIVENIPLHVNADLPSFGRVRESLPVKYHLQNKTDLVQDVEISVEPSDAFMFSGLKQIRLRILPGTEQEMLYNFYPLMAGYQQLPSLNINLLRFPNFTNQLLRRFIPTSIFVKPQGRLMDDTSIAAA
Outline: (§1)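 Extracted peptides in 3% acetonitrile/0.1% formic acid ran on a 50 cm C18 column into an Orbitrap Fusion, with MaxQuant identification and spectral counting.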

FBX038 = target: T2, FBX038 (human, UniProt Q6PIJ6 1-1188, limits assumed); assay: IP/MS, LZTR1 wild type-FLAG, U87
T2 construct: Printed with a zero; probably FBXO38
T2 sequence (looked up): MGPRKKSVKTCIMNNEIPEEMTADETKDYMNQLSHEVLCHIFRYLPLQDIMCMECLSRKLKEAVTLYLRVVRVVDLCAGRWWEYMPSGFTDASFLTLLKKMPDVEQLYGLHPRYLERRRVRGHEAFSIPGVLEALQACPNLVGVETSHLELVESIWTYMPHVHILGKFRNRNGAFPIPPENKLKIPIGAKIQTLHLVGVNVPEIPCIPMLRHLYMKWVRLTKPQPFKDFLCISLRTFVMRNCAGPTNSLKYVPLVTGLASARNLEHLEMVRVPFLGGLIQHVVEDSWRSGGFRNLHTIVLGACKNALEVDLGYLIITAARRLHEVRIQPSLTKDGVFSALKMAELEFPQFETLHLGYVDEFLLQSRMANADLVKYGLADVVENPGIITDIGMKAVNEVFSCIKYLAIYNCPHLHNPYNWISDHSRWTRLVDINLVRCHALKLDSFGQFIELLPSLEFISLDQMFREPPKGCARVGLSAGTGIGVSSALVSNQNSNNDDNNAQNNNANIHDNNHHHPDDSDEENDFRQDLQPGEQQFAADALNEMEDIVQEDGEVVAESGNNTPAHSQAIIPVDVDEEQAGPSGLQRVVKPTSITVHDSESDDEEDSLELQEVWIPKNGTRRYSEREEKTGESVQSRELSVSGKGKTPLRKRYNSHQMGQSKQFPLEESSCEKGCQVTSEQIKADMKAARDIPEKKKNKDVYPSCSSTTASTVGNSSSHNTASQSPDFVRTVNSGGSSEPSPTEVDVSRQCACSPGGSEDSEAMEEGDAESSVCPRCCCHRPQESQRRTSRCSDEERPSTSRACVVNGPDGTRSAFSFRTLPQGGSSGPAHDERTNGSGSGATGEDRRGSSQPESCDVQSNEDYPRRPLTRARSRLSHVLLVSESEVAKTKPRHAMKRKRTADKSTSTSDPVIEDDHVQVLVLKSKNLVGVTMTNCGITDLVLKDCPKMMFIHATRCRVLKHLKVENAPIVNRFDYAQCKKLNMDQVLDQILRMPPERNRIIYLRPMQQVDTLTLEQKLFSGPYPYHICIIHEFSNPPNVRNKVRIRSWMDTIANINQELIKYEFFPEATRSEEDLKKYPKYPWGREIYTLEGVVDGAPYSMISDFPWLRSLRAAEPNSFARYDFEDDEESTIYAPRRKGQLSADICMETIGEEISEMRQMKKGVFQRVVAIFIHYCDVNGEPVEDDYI
Outline: as §1

B1: LZTR1-FLAG (other, human, UniProt Q8N653 1-840, looked up)
chain: MAGPGSTGGQIGAAALAGGARSKVAPSVDFDHSCSDSVEYLTLNFGPFETVHRWRRLPPCDEFVGARRSKHTVVAYKDAIYVFGGDNGKTMLNDLLRFDVKDCSWCRAFTTGTPPAPRYHHSAVVYGSSMFVFGGYTGDIYSNSNLKNKNDLFEYKFATGQWTEWKIEGRLPVARSAHGATVYSDKLWIFAGYDGNARLNDMWTIGLQDRELTCWEEVAQSGEIPPSCCNFPVAVCRDKMFVFSGQSGAKITNNLFQFEFKDKTWTRIPTEHLLRGSPPPPQRRYGHTMVAFDRHLYVFGGAADNTLPNELHCYDVDFQTWEVVQPSSDSEVGGAEVPERACASEEVPTLTYEERVGFKKSRDVFGLDFGTTSAKQPTQPASELPSGRLFHAAAVISDAMYIFGGTVDNNIRSGEMYRFQFSCYPKCTLHEDYGRLWESRQFCDVEFVLGEKEECVQGHVAIVTARSRWLRRKITQARERLAQKLEQEAAPVPREAPGVAAGGARPPLLHVAIREAEARPFEVLMQFLYTDKIKYPRKGHVEDVLLIMDVYKLALSFQLCRLEQLCRQYIEASVDLQNVLVVCESAARLQLSQLKEHCLNFVVKESHFNQVIMMKEFERLSSPLIVEIVRRKQQPPPRTPLDQPVDIGTSLIQDMKAYLEGAGAEFCDITLLLDGHPRPAHKAILAARSSYFEAMFRSFMPEDGQVNISIGEMVPSRQAFESMLRYIYYGEVNMPPEDSLYLFAAPYYYGFYNNRLQAYCKQNLEMNVTVQNVLQILEAADKTQALDMKRHCLHIIVHQFTKVSKLPTLRSLSQQLLLDIIDSLASHISDKQCAELGADI
notes: Expressed in HEK 293T, HeLa or U87 cells; used as cell lysate; also called LZTR1 wild type-FLAG; LZTR1 WT; not shown: FLAG tag at the C-terminus
binding result (TRAPPC11): binds | binding result (FBX038): binds
